The target of experiment [1] is 食蟹猴TIGIT (Cyno-TIGIT) on 293T-Cyno-TIGIT cells (cynomolgus monkey (Macaca fascicularis)). Nature of the experiment: flow cytometry on 293T-Cyno-TIGIT cells, secondary antibody alone (background control).
In experiment [2] the target is T1, 人TIGIT (hTIGIT) on 293T-hTIGIT cells (human) (UniProt Q495A1).
T1 sequence: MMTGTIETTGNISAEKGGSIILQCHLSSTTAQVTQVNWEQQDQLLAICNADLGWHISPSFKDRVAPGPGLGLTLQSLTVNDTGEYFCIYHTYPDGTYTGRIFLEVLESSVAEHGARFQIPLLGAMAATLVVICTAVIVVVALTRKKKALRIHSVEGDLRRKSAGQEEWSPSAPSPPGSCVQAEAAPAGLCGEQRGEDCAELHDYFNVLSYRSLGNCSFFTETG
Put plainly: flow cytometry on 293T-hTIGIT cells, secondary antibody alone (background control).

Experiment [3] deals with T2, TIGIT-hFc蛋白(人TIGIT胞外区与人IgG1 Fc的融合蛋白) (human) (UniProt Q495A1).
T2 sequence: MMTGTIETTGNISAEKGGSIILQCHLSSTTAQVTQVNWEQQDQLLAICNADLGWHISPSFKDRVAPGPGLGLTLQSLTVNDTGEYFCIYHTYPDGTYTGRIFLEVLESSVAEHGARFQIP
Put plainly: flow cytometry, blocking of TIGIT-hFc binding to 293T-hPVR cells, hybridoma supernatant.

The target in experiment [4] is 食蟹猴TIGIT (Cyno-TIGIT) on 293T-Cyno-TIGIT cells (cynomolgus monkey (Macaca fascicularis)). Put plainly: flow cytometry on 293T-Cyno-TIGIT cells, 50 uL hybridoma supernatant, APC anti-mouse IgG Fc.
For experiment [5], the target named is T2, TIGIT-hFc蛋白(人TIGIT胞外区与人IgG1 Fc的融合蛋白) (human). Put plainly: flow cytometry, signal on 293T-hPVR cells with 500 ng TIGIT-hFc and 50 uL hybridoma supernatant.
Experiment [6] deals with T1, 人TIGIT (hTIGIT) on 293T-hTIGIT cells (human). Put plainly: flow cytometry on 293T-hTIGIT cells, 0.5 ug antibody, APC anti-human IgG Fc.
For experiment [7] the target is unchanged. Put plainly: flow cytometry on 293T-hTIGIT cells, 1.7 ug antibody, APC anti-human IgG Fc.
For experiment [8] the target is unchanged. Nature of the experiment: flow cytometry on 293T-hTIGIT cells, 1.0 ug antibody, APC anti-human IgG Fc.

Chain of 食蟹猴TIGIT (Cyno-TIGIT) on 293T-Cyno-TIGIT cells (cynomolgus monkey (Macaca fascicularis)) (chain, as listed by the source limits assumed): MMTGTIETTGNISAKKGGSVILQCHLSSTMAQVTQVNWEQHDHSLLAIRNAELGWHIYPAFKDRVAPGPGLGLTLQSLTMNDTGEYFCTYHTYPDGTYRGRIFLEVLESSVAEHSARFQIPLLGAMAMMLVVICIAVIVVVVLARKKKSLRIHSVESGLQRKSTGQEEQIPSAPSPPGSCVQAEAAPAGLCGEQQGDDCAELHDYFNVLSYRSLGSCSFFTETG

On to “APC羊抗小鼠IgG Fc二抗(Biolegend, Cat405308) (antibody)”, for which, in experiment [1], the Geom.Mean amounted to 1920.
For “APC抗人IgG Fc二抗(Biolegend, Cat409306) (antibody)”, in experiment [2], the Geom.Mean worked out at 405.

B1: 鼠源抗TIGIT抗体(杂交瘤18A12分泌的抗体) (antibody, V domains shown)
VH: QVQLLESGGGLVQPGGSMKLSCVVSGFTFSNYWMNWVRQSPEKGLEWVAEIRLKSNNYATHYAESVKGRFAISRDDSKSSVYLQMNNLRAEDTGVYYCTRLYYGNYFDYWGQGTTLTVSS
VL: DIQMTQSPASLSASVGETVTITCRASENTYSYLAWYQQKQGKSPQLLVYNAKTLAEGVPSRFSGSGSGTQFSLKITSLQPEDFGSYYCQHHYAFSYTFGGGTKLEMK
In the case of B1, the 阻断率% in experiment [3] was 80.9%. Moreover, the values for the Geom.Mean in experiment [4] and in experiment [5] were 20000 and 2760, respectively.

B2: 抗TIGIT嵌合抗体(IgG1亚型) (antibody, V domains shown)
VH: B1 VH
VL: DIQMTQSPASLSASVGETVTITCRASENTYSYLAWYQQKQGKSPQLLVYNAKTLAEGVPSRFSGSGSGTQFSLKITSLQPEDFGSYYCQHHYAFSYTFGGGTKLEMKR
As to B2, the figures for the Geom.Mean in experiment [6], in experiment [7] and in experiment [8] were 8790, 12200 and 10300, respectively.

Values taken from patent publication CN114790241A.
